Measurements as given in US20260116958A1 (University of California, published 2026).

What was measured:
[1] = target: inactive BoNT/G (BoNT/Gi) (Clostridium botulinum) (UniProt Q60393); assay: flow cytometry, scFv on yeast
[2] = target: inactive BoNT/G (BoNT/Gi) (Clostridium botulinum) (UniProt Q60393); assay: flow cytometry, scFv on yeast; against hu6G6 Wt
[3] = target: T1, inactive BoNT/G (BoNT/Gi) (Clostridium botulinum, UniProt Q60393 1-1297); assay: flow cytometry, scFv on yeast
T1 sequence: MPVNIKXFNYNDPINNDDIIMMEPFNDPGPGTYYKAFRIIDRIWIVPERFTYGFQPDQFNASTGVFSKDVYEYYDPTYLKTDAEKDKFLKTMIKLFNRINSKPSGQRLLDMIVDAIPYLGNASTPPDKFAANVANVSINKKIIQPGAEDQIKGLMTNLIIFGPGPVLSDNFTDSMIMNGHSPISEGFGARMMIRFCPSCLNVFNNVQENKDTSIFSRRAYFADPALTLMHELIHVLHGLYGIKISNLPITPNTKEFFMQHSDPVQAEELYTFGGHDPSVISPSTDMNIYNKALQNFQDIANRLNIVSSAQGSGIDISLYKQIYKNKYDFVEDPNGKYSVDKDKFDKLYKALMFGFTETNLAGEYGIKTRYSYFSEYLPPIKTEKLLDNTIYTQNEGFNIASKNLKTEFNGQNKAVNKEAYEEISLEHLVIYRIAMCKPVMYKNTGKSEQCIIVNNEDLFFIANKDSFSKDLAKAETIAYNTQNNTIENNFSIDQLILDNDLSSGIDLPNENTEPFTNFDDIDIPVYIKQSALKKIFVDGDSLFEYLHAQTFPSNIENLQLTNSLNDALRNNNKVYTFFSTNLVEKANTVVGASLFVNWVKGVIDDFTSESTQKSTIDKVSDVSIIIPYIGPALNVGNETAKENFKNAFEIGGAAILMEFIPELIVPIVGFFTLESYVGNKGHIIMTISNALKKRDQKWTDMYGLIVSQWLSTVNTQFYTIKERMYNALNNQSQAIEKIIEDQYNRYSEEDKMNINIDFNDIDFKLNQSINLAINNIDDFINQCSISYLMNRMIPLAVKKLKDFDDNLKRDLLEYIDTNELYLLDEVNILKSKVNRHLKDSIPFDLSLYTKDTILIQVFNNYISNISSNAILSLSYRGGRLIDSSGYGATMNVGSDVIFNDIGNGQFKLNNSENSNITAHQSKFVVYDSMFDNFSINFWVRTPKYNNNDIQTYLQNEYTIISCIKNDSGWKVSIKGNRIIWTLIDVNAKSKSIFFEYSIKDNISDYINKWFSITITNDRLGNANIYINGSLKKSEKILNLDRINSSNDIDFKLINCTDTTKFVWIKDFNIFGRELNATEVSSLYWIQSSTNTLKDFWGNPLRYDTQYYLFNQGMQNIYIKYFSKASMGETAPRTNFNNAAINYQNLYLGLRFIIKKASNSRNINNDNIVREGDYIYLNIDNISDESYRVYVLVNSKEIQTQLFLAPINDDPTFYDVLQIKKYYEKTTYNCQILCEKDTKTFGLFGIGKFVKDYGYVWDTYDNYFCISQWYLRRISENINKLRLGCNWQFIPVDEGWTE

active BoNT/G holotoxin = target: T2, active BoNT/G holotoxin (Clostridium botulinum, UniProt Q60393 2-1297)
T2 sequence: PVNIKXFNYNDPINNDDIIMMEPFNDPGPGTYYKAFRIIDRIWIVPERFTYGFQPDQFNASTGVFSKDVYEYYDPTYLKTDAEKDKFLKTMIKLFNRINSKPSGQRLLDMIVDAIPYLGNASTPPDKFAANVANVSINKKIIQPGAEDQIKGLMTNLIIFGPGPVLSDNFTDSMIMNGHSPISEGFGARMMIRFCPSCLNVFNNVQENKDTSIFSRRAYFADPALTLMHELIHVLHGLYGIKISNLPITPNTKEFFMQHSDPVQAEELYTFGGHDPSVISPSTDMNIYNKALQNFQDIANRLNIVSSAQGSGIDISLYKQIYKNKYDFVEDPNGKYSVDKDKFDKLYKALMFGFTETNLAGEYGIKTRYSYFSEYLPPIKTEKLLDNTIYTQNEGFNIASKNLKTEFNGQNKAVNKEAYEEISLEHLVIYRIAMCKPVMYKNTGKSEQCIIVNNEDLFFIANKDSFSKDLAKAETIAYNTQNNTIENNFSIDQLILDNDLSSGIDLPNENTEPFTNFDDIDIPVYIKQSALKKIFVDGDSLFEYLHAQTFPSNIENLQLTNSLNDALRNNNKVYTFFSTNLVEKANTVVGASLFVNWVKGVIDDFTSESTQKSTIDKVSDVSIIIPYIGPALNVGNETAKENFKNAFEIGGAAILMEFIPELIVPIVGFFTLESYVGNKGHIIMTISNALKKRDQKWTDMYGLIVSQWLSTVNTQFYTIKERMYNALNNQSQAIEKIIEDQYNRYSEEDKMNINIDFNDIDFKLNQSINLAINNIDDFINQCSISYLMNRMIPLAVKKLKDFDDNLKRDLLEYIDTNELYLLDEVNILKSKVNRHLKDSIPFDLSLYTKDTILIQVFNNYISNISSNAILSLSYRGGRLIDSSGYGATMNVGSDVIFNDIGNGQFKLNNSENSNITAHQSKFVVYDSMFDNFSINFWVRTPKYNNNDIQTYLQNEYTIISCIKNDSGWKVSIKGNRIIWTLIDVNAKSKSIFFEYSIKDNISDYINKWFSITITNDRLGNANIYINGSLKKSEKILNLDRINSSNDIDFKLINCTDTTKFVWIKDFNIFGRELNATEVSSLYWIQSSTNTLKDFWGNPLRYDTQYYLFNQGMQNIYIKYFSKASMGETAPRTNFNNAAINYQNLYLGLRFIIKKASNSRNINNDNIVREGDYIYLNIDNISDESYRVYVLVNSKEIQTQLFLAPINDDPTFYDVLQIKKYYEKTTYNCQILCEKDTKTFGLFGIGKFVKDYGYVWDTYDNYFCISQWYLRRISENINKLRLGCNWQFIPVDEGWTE

B1: hu6G6 variant A3 scFv (scFv)
scFv: QVQLVQSGAEVKKPGASVKLSCKASGFNIKDTYMHWVRQAPGQGLEWIGRIDPANGNTKYDPKFQGRATITAGTSINTAYLELSRLRSDDTAVYYCASGPNYYGTTWFAYWGQGTTVTVSSVDLKSGGSTSGSGKPGSGEGSSGSARKIVLTQSPSTLSASVGDRVTITCRASHGISNYLAWYQQKPGRAPKLLIYKASTLHIGVPSRFSGSGSGTEFALTISSLQPDDFSTYYCQQYISYLPHTFGQGTRLEIK
[1]
  Kd: 5.18 nM
[2]
  Improvement over WT: 4.5 fold

B2: hu6G6 variant A4 scFv (scFv)
scFv: QVQLVQSGAEVKKPGASVKLSCKASGFNIKDTYMHWVRQAPGQGLEWIGRIDPENGNTKYDPKFQGRATITAYKSINTAYLELSRLRSDDTAVYYCASGPNYYGTTWFAYWGQGTTVTVSSVDLKSGGSTSDSGKPGSGEGSSGSAREIVLTQSPSTLSASVGDRVTITCRASHGISNYLAWYQQKPGRAPKLLIYKASTLHIGVPSRFSGSGSGTEFALTISSLQPDDFSTYYCQQYNSYLPHTFGQGTRLEIK
[1]
  Kd: 3.46 nM
[2]
  Improvement over WT: 6.8 fold

B3: hu6G6 variant B8.1 scFv (scFv)
scFv: QVQLVQSGAEVNKPGASVKLSCKASGFNIKDTYMHWVRQAPGQGLEWIGRIDPANGNTKYDPKFQGRATITAYTSFNTAYLELSRLRSDDTAVYYCASGPNYYGTTWFAYWGQGTTVTVSSVDLKSGGSTSGSGKPGSGEGSSGSAREIVLTQSPSTLSASVGDRVTITCRASHGISNYLAWYQQKPGRAPKLLIYKASTLHIGVPSRFSGSGSGTEFALTISSLQPDDFSTYYCQQYNSYLPHTFGQGTRLEIK
[1]
  Kd: 5.43 nM
[2]
  Improvement over WT: 4.3 fold

B4: hu6G6 variant B8 scFv (scFv)
scFv: QVQLVQSGAEVNKPGASVKLSCKASGFNIKDTYMHWVRQAPGQGLEWIGRIDPANGNTKYDPKFQGRATITAYTSFNTAYLELSRLRSDDTAVYYCASGPNYYGTTWFAYWGQGSTVTVSSVDLKSGGSTSGSGKPGSGEGSSGSAREIVLTQSPSTLSASVGDRVTITCRASHGISNYLAWYQQKPGRAPKLLIYKASTLHIGVPSRFSGSGSGTEFALTISSLQPDDFSTYYCQQYNSYLPHTFGQGTRLEIK
[1]
  Kd: 3.75 nM
[2]
  Improvement over WT: 6.2 fold

B5: hu6G6 variant A3.1 scFv (scFv)
scFv: QVQLVQSGAEVKKPGASVKLSCKASGFNIKDTYMHWVRQAPGQGLEWIGRIDPANGNTKYDPKFQGRATITAGTSINTAYLELSRLRSDDTAVYYCASGPNYYGTTWFAYWGQGTTVTVSSVDLKSGGSTSGSGKPGSGEGSSGSAREIVLTQSPSTLSASVGDRVTITCRASHGISNYLAWYQQKPGRAPKLLIYKASTLHIGVPSRFSGSGSGTEFALTISSLQPDDFSTYYCQQYNSYLPHTFGQGTRLEIK
[1]
  Kd: 6.5 nM
[2]
  Improvement over WT: 3.5 fold

B6: Hu6G7.1 scFv (scFv, V domains shown)
VH: QVQLVQSGAEVKKPGASVKVSCKASDYSFTDYNIYWVRQTPGQGLEWIGYIDPYNGGTSYNQKFKGRATLTVDKSISTAYMELSRLRSDDTAVYYCALYGYDPDYIDYWGQGTTLTVSS
VL: DIVLTQSPASMAVSPGQRVTITCSASSSVSYLHWFQQKPGQSPKLWIYSTSNLASGVPARFSGSGSGTDYTLTINPMEAEDTATYYCQQRSSYPYTFGQGTKLEIKR
[3]
  fold lower affinity than murine 6G7.1: 10 fold

B7: hu6G6.1 IgG (antibody, V domains shown)
VH: QVQLVQSGAEVKKPGASVKLSCKASGFNIKDTYMHWVRQAPGQGLEWIGRIDPENGNTKYDPKFQGRATITAYKSINTAYLELSRLRSDDTAVYYCASGPNYYGTTWFAYWGQGTTVTVSS
VL: EIVLTQSPSTLSASVGDRVTITCRASHGISNYLAWYQQKPGRAPKLLIYKASTLHIGVPSRFSGSGSGTEFALTISSLQPDDFSTYYCQQYNSYLPHTFGQGTRLEIKR
Active BoNT/G holotoxin
  Kd: 0.476 nM
